In publication PMC5971111 (Nature structural & molecular biology, 2018):

Target: T1, Sec8 (S. cerevisiae, UniProt P32855 1-1065)
T1 sequence: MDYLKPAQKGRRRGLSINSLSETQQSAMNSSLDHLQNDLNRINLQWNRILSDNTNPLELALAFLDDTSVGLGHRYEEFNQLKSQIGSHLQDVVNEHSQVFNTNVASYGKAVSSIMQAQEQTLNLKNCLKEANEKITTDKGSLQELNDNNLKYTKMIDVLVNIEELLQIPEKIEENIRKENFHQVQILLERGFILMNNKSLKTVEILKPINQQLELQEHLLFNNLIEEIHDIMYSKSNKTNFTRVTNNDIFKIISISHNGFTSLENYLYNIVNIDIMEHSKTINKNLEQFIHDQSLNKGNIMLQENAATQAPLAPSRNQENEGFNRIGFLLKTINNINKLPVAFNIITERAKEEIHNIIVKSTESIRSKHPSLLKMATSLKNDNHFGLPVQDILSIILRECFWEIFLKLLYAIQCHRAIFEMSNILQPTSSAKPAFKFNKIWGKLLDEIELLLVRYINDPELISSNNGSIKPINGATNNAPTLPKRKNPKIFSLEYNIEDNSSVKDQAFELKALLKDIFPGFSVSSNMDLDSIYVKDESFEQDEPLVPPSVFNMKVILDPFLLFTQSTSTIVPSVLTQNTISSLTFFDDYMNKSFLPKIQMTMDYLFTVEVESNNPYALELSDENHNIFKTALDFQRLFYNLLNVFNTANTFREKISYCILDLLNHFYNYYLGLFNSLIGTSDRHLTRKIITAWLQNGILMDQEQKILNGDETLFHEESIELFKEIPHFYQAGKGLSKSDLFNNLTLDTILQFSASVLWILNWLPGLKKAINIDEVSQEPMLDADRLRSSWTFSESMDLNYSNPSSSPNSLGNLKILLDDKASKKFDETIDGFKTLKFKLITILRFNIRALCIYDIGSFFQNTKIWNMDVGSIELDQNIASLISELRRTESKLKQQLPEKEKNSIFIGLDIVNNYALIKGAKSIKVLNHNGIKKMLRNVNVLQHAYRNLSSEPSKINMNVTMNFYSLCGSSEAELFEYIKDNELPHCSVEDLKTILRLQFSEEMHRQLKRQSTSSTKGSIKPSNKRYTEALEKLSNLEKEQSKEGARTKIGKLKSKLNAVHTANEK
Test: […]

B1: Exo84 (natural protein)
chain: MVEFSLKKARNNWKHVKKSASSPAKQKTPPSPAKPKQKTKKNPYSDLKDPATSYTLPTINARERSRVATSMQRRLSIHNTNYAPPTLDYSMPLPDMPNMIVPNDNVDSSHNNSSFTTENESVSSKGPSNSLNLSTADLSLNDSSYNKVPARSAMRNTVNPSGSNDPFNNSTSLRKMLANPHFNAKDFVHDKLGNASAITIDKFTSNLTDLSIQVQEEVKLNINKSYNEIMTVNNDLNVAMLELKRVRANINDLNEVLDQCTKIAEKRLQLQDQIDQERQGNFNNVESHSNSPALLPPLKAGQNGNLMRRDRSSVLILEKFWDTELDQLFKNVEGAQKFINSTKGRHILMNSANWMELNTTTGKPLQMVQIFILNDLVLIADKSRDKQNDFIVSQCYPLKDVTVTQEEFSTKRLLFKFSNSNSSLYECRDADECSRLLDVIRKAKDDLCDIFHVEEENSKRIRESFRYLQSTQQTPGRENNRSPNKNKRRSMGGSITPGRNVTGAMDQYLLQNLTLSMHSRPRSRDMSSTAQRLKFLDEGVEEIDIELARLRFESAVETLLDIESQLEDLSERISDEELMLLNLISLKIEQRREAISSKLSQSILSSNEIVHLKSGTENMIKLGLPEQALDLFLQNRSNFIQDLILQIGSVDNPTNYLTQLAVIRFQTIKKTVEDFQDIFKELGAKISSILVDWCSDEVDNHFKLIDKQLLNDEMLSPGSIKSSRKQIDGLKAVGLDFVYKLDEFIKKNSDKIR
Q: Does B1 bind?
A: Result: binds
